{
  "source": "patent US20250066499A1",
  "about": "(SUNSHINE GUOJIAN PHARMACEUTICAL SHANGHAI, published 2025)",
  "binders": {"B1": {"name": "48A11-HuV33 (antibody, human IgG4, V domains shown)", "VH": "QVQLVQSGAEVKKPGASVKVSCKASGYTFTSYWMHWVRQAPGQGLEWIGEINPSIGRTNYNEKFKSRVTLTRDTSTSTAYMELSSLRSEDTAVYYCARRVYGTMDYWGQGTLVTVSS", "VL": "DIQMTQSPSSLSASVGDRVTITCKASQDINSYLSWFQQKPGKSPKLLIYRANIWVDGVPSRFSGSGSGQDYTFTISSLQPEDIATYYCLQYDELYTFGQGTKVEIK", "notes": "Humanized"}},
  "key": {"CD73-ND-L184A": {"target": "T1, CD73-ND-L184A (human, UniProt P21589 27-317)", "T1 construct": "Alanine mutant of CD73-ND", "T1 sequence": "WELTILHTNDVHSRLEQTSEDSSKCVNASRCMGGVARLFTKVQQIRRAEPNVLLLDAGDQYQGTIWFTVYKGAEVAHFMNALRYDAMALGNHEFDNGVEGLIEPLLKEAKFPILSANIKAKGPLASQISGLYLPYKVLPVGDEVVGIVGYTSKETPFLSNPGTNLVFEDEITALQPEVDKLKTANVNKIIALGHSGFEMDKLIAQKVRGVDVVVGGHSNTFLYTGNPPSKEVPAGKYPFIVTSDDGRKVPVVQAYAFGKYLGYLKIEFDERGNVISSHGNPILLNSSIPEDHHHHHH", "assay": "ELISA, high plateau value (OD 450 nm)", "description": "(§1) The ELISA plates were coated with SA protein diluted to 1.5 μg/mL in coating buffer (50 mM carbonate coating buffer, pH 9.6) and incubated overnight at 4° C. The supernatant was discarded, and the plates were washed three times with PBST. Then, 5% skimmed milk powder prepared with PBS was added for blocking and the plates were incubated for 2 h at 37° C. After washing the plates once with PBST, CD73-biotin protein (prepared by biotinylating CD73-His protein according to the EZ-Link NHS-Biotin Reagent instructions) was diluted to 0.5 μg/mL and added at 100 μL/well for incubation at room temperature for 1 h. The plates were washed three times with PBST, and the prepared murine-derived monoclonal antibodies against human CD73 were serially diluted with 1% BSA buffer prepared with PBST and added to the ELISA plates at 100 μl/well. The plates were incubated at 37° C. for 1 h. After washing the plates three times with PBST, HRP-labeled goat anti-mouse IgG secondary antibody was added and the plates were incubated for 30 min at 37° C. After washing the plates three times with PBST, the residual droplets were patted dry on absorbent paper as much as possible. Then, 100 μl of TMB color developing solution was added to each well, and the plates were incubated in the dark at room temperature for 5 min for color development. Subsequently, 50 μl of 2M H₂SO₄ stop solution was added to each well to terminate the substrate reaction. The OD values were read at 450 nm using a multimode microplate reader to analyze the binding ability of the tested antibodies to the target antigen human CD73-His.\n(§2) Referring to the experimental method in Example 3, the affinity of 48A11-HuV33 for various mutant proteins of CD73-ND was determined. The SA protein was diluted to 1 μg/mL for coating the ELISA plates, and the biotinylated CD73 protein (CD73-biotin) was used at a concentration of 0.1 μg/mL."}, "CD73-ND-V140A": {"target": "T2, CD73-ND-V140A (human, UniProt P21589 27-317)", "T2 construct": "Alanine mutant of CD73-ND", "T2 sequence": "T1 sequence with V140A, A184L", "assay": "ELISA, high plateau value (OD 450 nm)", "description": "as §1, §2"}, "CD73-ND-D142A": {"target": "T3, CD73-ND-D142A (human, UniProt P21589 27-317)", "T3 construct": "Alanine mutant of CD73-ND", "T3 sequence": "T1 sequence with D142A, A184L", "assay": "ELISA, high plateau value (OD 450 nm)", "description": "as §1, §2"}, "CD73-ND-his": {"target": "T4, CD73-ND-his (human, UniProt P21589 27-317)", "T4 construct": "Biotinylated and captured on streptavidin in the ELISA", "T4 sequence": "T1 sequence with A184L", "assay": "ELISA, high plateau value (OD 450 nm)", "description": "as §1, §2"}, "CD73-ND-Y132A": {"target": "T5, CD73-ND-Y132A (human, UniProt P21589 27-317)", "T5 construct": "Alanine mutant of CD73-ND", "T5 sequence": "T1 sequence with Y132A, A184L", "assay": "ELISA; decline multiple of Top against CD73-ND", "description": "as §1, §2"}, "CD73-ND-Y135A": {"target": "T6, CD73-ND-Y135A (human, UniProt P21589 27-317)", "T6 construct": "Alanine mutant of CD73-ND", "T6 sequence": "T1 sequence with Y135A, A184L", "assay": "ELISA; decline multiple of Top against CD73-ND", "description": "as §1, §2"}},
  "note": "Positions count from the first letter of the chain named.",
  "data": [
    {"binder": "B1", "values": [
      {"measurement": "Top", "setting": "CD73-ND-L184A", "value": 1.7},
      {"measurement": "Top", "setting": "CD73-ND-V140A", "value": 2.05},
      {"measurement": "Top", "setting": "CD73-ND-D142A", "value": 1.84},
      {"measurement": "Top", "setting": "CD73-ND-his", "value": 2},
      {"measurement": "Ratio(Top)", "setting": "CD73-ND-Y132A", "value": 8.2, "unit": "fold"},
      {"measurement": "Ratio(Top)", "setting": "CD73-ND-Y135A", "value": 1.1, "unit": "fold"}
    ]}
  ]
}
